Measured values from patent US20180104307A1 (University of California, published 2018).

B1: TAT-GIV-CT-F1685A (peptide)
chain: MRGSHHHHHHGMASMTGGQQMGRDLYDDDDKDRWGSKLGYGRKKRRQRRRGGSTMSGYPYDVPDYAGSMGGSGHSGETLESRHHKIKTGSPGSEVVTLQQALEESNKLTSVQIKSSSQENLLDEVMKSLSVSSDFLGKDKPVSCGLARSVSGKTPGDFYDRRTTKPEFLRPGPRKTEDTYFISSAGKPTPGTQGKIKLVKESSLSRQSKDSNPYATLPRASSVISTAEGTTRRTSIHDFLTKDSRLPISVDSPPAAADSNTTAASNVDKVQESRNSKSRSREQQSS
notes: Recombinant, made in E. coli; GEF-deficient mutant; also called TAT-GIV-CT-FA; FA
B2: GST-GIV-CT (amino acids 1660-1870) (other)
chain: ETLESRHHKIKTGSPGSEVVTLQQFLEESNKLTSVQIKSSSQENLLDEVMKSLSVSSDFLGKDKPVSCGLARSVSGKTPGDFYDRRTTKPEFLRPGPRKTEDTYFISSAGKPTPGTQGKIKLVKESSLSRQSKDSNPYATLPRASSVISTAEGTTRRTSIHDFLTKDSRLPISVDSPPAAADSNTTAASNVDKVQESRNSKSRSREQQSS
notes: Immobilised on glutathione-agarose beads; also called GST-tagged GIV-CT peptide; not shown: glutathione S-transferase tag

Columns and labels:
GST-Gαi3 (GDP loaded) = target: T1, GST-Gαi3 (GDP loaded) (rat, UniProt P08753 1-354); assay: GST pulldown with GDP-loaded GST-Gαi3, anti-His immunoblot
T1 construct: not shown: glutathione S-transferase tag encoded by pGEX-4T-1
T1 sequence (P08753 whole entry): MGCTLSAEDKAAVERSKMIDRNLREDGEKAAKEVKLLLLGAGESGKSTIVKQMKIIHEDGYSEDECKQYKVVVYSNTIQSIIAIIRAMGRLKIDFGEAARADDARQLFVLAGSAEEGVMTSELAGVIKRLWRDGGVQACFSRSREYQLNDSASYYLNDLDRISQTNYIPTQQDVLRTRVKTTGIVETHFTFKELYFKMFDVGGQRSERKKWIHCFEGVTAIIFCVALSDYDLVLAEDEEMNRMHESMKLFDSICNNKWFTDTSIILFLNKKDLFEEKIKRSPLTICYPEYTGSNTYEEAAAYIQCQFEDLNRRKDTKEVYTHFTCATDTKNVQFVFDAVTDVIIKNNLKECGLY

His-Gαi3 (GDP-loaded) = target: T2, His-Gαi3 (GDP-loaded) (UniProt P08753 1-354); assay: GST pulldown: GST-GIV-CT on glutathione-agarose beads with 0.01-3 µM His-Gαi3; anti-His band intensities fitted to a single-site hyperbola; three experiments
T2 construct: Purified protein, GDP-loaded
T2 sequence (P08753 whole entry): as above

Binder | binding result (GST-Gαi3 (GDP loaded)) | Kd (His-Gαi3 (GDP-loaded)) [nM]
B1 | no binding | 
B2 |  | 240
